Results: the supplement of paper PMC7877785
± gives the uncertainty stated by the source.

Assay: self-splicing fitness, log relative to wild type (ln ratio); higher = more splicing; Tetrahymena group I intron in knt gene, E. coli kanamycin selection, DiMSum; sequences stand for … in CUCUCU…GGAGGGAAAAGUUAUCAGGCAUGCACCUGGUAGCUAGUCUUUAAACCAAUAGAUUGCAUCGGUUUAAAAGGCAAGACCGUCAAAUUGCGGGAAAGGGGUCAACAGCCGUUCAGUACCAAGUCUCAGGGGAAACUUUGAGAUGGCCUUGCAAAGGGUAUGGUAAUAAGCUGACGGACAUGGUCCUAACCACGCAGCCAAGUCCUAAGUCAACAGAUCUUCUGUUGAUAUGGAUGCAGUUCACAGACUAAAUGUCGGUCGGGGAAGAUGUAUUCUUCUCAUAAGAUAUAGUCGGACCUCUCCUUAAUGGGAGCUAGCGGAUGAAGUGAUGCAACACUGGAGCCGCUGGGAACUAAUUUGUAUGCGAAAGUAUAUUGAUUAGUUUUGGAGUACUCGUGGUCG
How it was run: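 Pooled colonies went to amplicon sequencing on an Illumina HiSeq 2500 after six replicate transformations. The plates were LB agar with 100 μg/mL carbenicillin, 50 μM IPTG and 0.2% rhamnose, with or without 25 μg/mL kanamycin, incubated overnight at 37°C or 30°C. The E. coli BL21(DE3) library had all eight P1ex-region intron nucleotides randomised, the intron placed in the knt kanamycin-resistance gene on pET-22b(+). DiMSum fitness is the error-weighted combination of replicate fold changes, kanamycin against none, normalised to wild type.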

Sequence	self-splicing fitness (ln) (30 °C)	self-splicing fitness (ln) (37 °C)
ACUCAGCAAUAUUACGGGAG	-1.56 ± 0.051	-1.11 ± 0.067
UACGAGCAAUAUUACGUGGU	-2.86 ± 0.15	-1.87 ± 0.23
CGGUAGCAAUAUUACGCUGU	-3.2 ± 0.23	-3.02 ± 0.37
GCUGAGCAAUAUUACGAGAC	-3.06 ± 0.36	0.142 ± 0.23
CUCCAGCAAUAUUACGAGAC	-4.42 ± 0.46	-3.28 ± 0.37
CUGUAGCAAUAUUACGGAGU	-3.65 ± 0.23	-2.74 ± 0.24
GGGGAGCAAUAUUACGGUCG	-2.08 ± 0.28	-0.686 ± 0.35
ACAAAGCAAUAUUACGCCGU	-2.44 ± 0.16	-1.41 ± 0.21
AAAGAGCAAUAUUACGCAGG	-3.47 ± 0.24	-3.45 ± 0.35
UGGAAGCAAUAUUACGAAUG	-0.927 ± 0.11	-0.211 ± 0.12
ACACAGCAAUAUUACGUAAC	-3.39 ± 0.12	-1.81 ± 0.14
UGACAGCAAUAUUACGGUCU	-1.58 ± 0.065	-0.946 ± 0.072
UAUUAGCAAUAUUACGUCUA	-0.265 ± 0.091	0.324 ± 0.12
UGGAAGCAAUAUUACGGCGG	-0.545 ± 0.08	-0.13 ± 0.1
UUCUAGCAAUAUUACGCCCG	-1.09 ± 0.27	-0.74 ± 0.4
AAGGAGCAAUAUUACGAUCU	-0.603 ± 0.085	-0.731 ± 0.11
CCUAAGCAAUAUUACGCCAU	-4.47 ± 0.46	-2.48 ± 0.34
ACCCAGCAAUAUUACGCAAG	-2.81 ± 0.11	-1.14 ± 0.11
AGUCAGCAAUAUUACGUAAC	-1.88 ± 0.099	-1.37 ± 0.11
ACUUAGCAAUAUUACGGUCU	-1.41 ± 0.088	0.0181 ± 0.082
CAAUAGCAAUAUUACGCUGU	-3.13 ± 0.17	-2.07 ± 0.15
CCAAAGCAAUAUUACGCUGA	-4.48 ± 0.36	-2.75 ± 0.19
GUAUAGCAAUAUUACGCGAC	-2.49 ± 0.3	–
CGAUAGCAAUAUUACGCGUA	-2.42 ± 0.41	-2.14 ± 0.24
AGCUAGCAAUAUUACGUACC	-0.329 ± 0.19	-0.483 ± 0.25
UGACAGCAAUAUUACGGGAG	-1.59 ± 0.062	-0.0844 ± 0.061

Sequence	self-splicing fitness (ln) (30 °C)	self-splicing fitness (ln) (37 °C)
ACCCAGCAAUAUUACGUCUA	-1.41 ± 0.093	-0.988 ± 0.09
GCCUAGCAAUAUUACGACGG	-3.6 ± 0.31	-2.37 ± 0.27
CCCCAGCAAUAUUACGCACU	-4.21 ± 0.33	-2.68 ± 0.22
CAGCAGCAAUAUUACGUUUG	-3.1 ± 0.16	-2.01 ± 0.16
UGCUAGCAAUAUUACGCUCU	-1.63 ± 0.13	-0.156 ± 0.15
AUACAGCAAUAUUACGCUAC	-2.36 ± 0.35	–
CGGGAGCAAUAUUACGAUAG	–	-1.97 ± 0.37
AGUAAGCAAUAUUACGCUCU	-1.96 ± 0.2	-1.59 ± 0.27
UAACAGCAAUAUUACGGUUG	-0.966 ± 0.043	-1.04 ± 0.064
AGCGAGCAAUAUUACGCUCG	-3.5 ± 0.27	-2.34 ± 0.49
CUAUAGCAAUAUUACGCUGC	-3.11 ± 0.36	–
CUACAGCAAUAUUACGUAUG	-2.21 ± 0.09	-1.35 ± 0.091
GGUCAGCAAUAUUACGUUGU	-1.51 ± 0.057	-0.47 ± 0.068
GAUGAGCAAUAUUACGUGUA	-2.77 ± 0.16	-1.87 ± 0.16
GAUGAGCAAUAUUACGACUG	-3.11 ± 0.44	–
UGGUAGCAAUAUUACGGAUC	-2.25 ± 0.23	-1.65 ± 0.32
CUUGAGCAAUAUUACGACAA	–	-2.84 ± 0.49
AGACAGCAAUAUUACGCACU	-0.646 ± 0.12	-0.203 ± 0.13
UGAGAGCAAUAUUACGGUCG	-1.56 ± 0.083	-0.464 ± 0.11
UUUGAGCAAUAUUACGGAGG	-3.18 ± 0.32	-2.33 ± 0.46
CUCUAGCAAUAUUACGCUAG	-3.15 ± 0.25	-1.85 ± 0.28
AACCAGCAAUAUUACGACCG	-0.744 ± 0.087	-0.237 ± 0.14
CAUCAGCAAUAUUACGGUGA	-1.63 ± 0.12	-1.4 ± 0.12
GUGAAGCAAUAUUACGCACU	-3.68 ± 0.47	-2.19 ± 0.29
AUCUAGCAAUAUUACGAUUG	-3.1 ± 0.28	-2.79 ± 0.34
UGAUAGCAAUAUUACGGCCA	-0.243 ± 0.14	0.424 ± 0.2

Sequence	self-splicing fitness (ln) (30 °C)	self-splicing fitness (ln) (37 °C)
CUCAAGCAAUAUUACGAUGA	-1.31 ± 0.11	-2.07 ± 0.16
GUCCAGCAAUAUUACGAUAA	-1.3 ± 0.087	-0.506 ± 0.11
CGCGAGCAAUAUUACGGCGC	-2.93 ± 0.23	-2.88 ± 0.31
UUGUAGCAAUAUUACGACUG	-0.0934 ± 0.12	-0.0721 ± 0.14
AGACAGCAAUAUUACGUCGC	-2.96 ± 0.2	-1.98 ± 0.19
CGAGAGCAAUAUUACGUGUG	-2.97 ± 0.12	-2.5 ± 0.15
UGUUAGCAAUAUUACGUUUC	-3.91 ± 0.46	-2.06 ± 0.33
UGUAAGCAAUAUUACGGAGC	-2.11 ± 0.33	–
CCCUAGCAAUAUUACGUGAA	-2.8 ± 0.16	-2.62 ± 0.2
UGUUAGCAAUAUUACGGGCU	-1.9 ± 0.13	-1.5 ± 0.17
UCACAGCAAUAUUACGACCG	-0.795 ± 0.11	0.149 ± 0.12
UGAGAGCAAUAUUACGGUGU	-2.98 ± 0.24	-2.36 ± 0.29
CUGGAGCAAUAUUACGUCAU	-4.18 ± 0.25	-3.19 ± 0.4
AAGAAGCAAUAUUACGUGAC	-3.34 ± 0.15	-1.67 ± 0.11
ACGUAGCAAUAUUACGCCUA	-0.946 ± 0.1	-0.412 ± 0.099
ACCAAGCAAUAUUACGUGGU	-3.41 ± 0.1	-2.69 ± 0.13
GAGUAGCAAUAUUACGUGCC	-1.79 ± 0.23	-0.846 ± 0.18
CUGGAGCAAUAUUACGGCUU	-4.3 ± 0.42	-2.68 ± 0.33
CCCAAGCAAUAUUACGGCCU	-3.6 ± 0.35	-3.09 ± 0.37
CAGUAGCAAUAUUACGGACU	-2.38 ± 0.16	-0.698 ± 0.12
AUAAAGCAAUAUUACGUUGU	-2.65 ± 0.11	-1.9 ± 0.11
GUUAAGCAAUAUUACGAAUG	-2.32 ± 0.24	-1.59 ± 0.21
ACAGAGCAAUAUUACGAUGU	-3.39 ± 0.16	-2.38 ± 0.18
AUAGAGCAAUAUUACGUAAA	–	-1.57 ± 0.24
UCAUAGCAAUAUUACGAUGC	-1.49 ± 0.14	-1.43 ± 0.14
GCGUAGCAAUAUUACGGCAC	-0.32 ± 0.17	-0.367 ± 0.22
